Measured values as given in US8093209B2, “Methods of suppressing microglial activation and systemic inflammatory responses” (Cognosci, Incorporated, priority 2002, dated 2012).

Assays:
[1] = test system: primary hippocampal neurons; conditions: cited from earlier work
[2] = test system: enriched microglia primary cultures from apoE deficient mouse pups; test: LPS-stimulated nitric oxide (nitrite) secretion by enriched microglia primary cultures; format: cell-based; conditions: peptide 0 μM to 1000 μM, LPS 100 ng/ml, after 48 hours
Procedure: Culture preparation and characterization: Mixed glial cell cultures were prepared from: (a) wildtype (C57B16; Jackson Laboratories) mouse pups; (b) ApoE deficient mutant mouse pups (ApoE-deficient mice), and (c) transgenic mouse pups expressing human ApoE3 but not murine ApoE (ApoE3 mice). See Xu et al., Neurobiol. Dis. 3:229 (1996) regarding the creation and characterization of the transgenic mice. Mixed glial cell cultures were prepared as has been described. See McMillian et al., Neurochem. 58:1308 (1992); Laskowitz et al., J. Neuroimmunol. 76:70 (1997). Briefly, brains were removed from 2-4 day old pups, cleaned of membranes and blood vessels, mechanically dispersed in Ca^+2-free media, and collected by centrifugation. Cells were then plated in DMEM/F12 (containing 10% fetal calf serum, 1% penicillin/streptomycin, Gibco #15070), one brain per 25 cm flask. […]
Nitrite Quantification The production of NO was assessed by measuring the accumulation of nitrite, which was quantified using a calorimetric reaction with Griess reagent (0.1% N-1-naphthylethylenediamine dihydrochloride, 1% sulfanilamide, and 2.5% H3PO4). Absorbance was measured at 570 nm by spectrophotometry. […]
Enriched microglia primary cultures were prepared from the brains of apoE deficient mouse pups as described in Example 1, above. […] Nitric oxide production was assessed as described in Example 1. […]

LRKLRKRLL LRKLRKRLL (LRKLRKRLLLRKLRKRLL; fragment of ApoE containing LDL receptor binding site) [SEQ ID NO:3]
neuronal cell death [1]: induced neuronal cell death
nitric oxide secretion by activated microglia [2]: dose-dependent decrease in nitric oxide secretion
